From the supplement of paper PMC10567573 come the findings set out here.

B1: TAF7L (parent)
chain: PDVENEVKRLLRSDAEAVSTRWEV
B2: C22orf15 (parent)
chain: RGRHEQSPTSRPRKVSSLPPRSC
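Also: lentivirally expressed fusions sorted by FACS into six bins by GFP to DsRed ratio, PSI derived from sequencing read proportions per bin multiplied by bin number.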

Variants of B1 are the subject of one data set. Put plainly: protein stability index of a GFP-peptide fusion (GPS, HEK-293T) (PSI 1-6); higher = more stable. To be noted: c terminus: a fixed tail appended.
Take PDVENEHKRLLRSDAEAVSTRWEV [V7H]: the protein stability index stood at 4.06. For PDVENEQKRLLRSDAEAVSTRWEV [V7Q], the protein stability index turned out to be 3.68. On the same count and under the same terms, with PDVENEGKRLLRSDAEAVSTRWEV [V7G] the figure was 4.2. For PDVENETKRLLRSDAEAVSTRWEV [V7T], the protein stability index was determined as 4.13.

Consider PDVENEKKRLLRSDAEAVSTRWEV [V7K], for which the protein stability index came to 4.23. The same measure, in the same setting: as for PDVENECKRLLRSDAEAVSTRWEV [V7C], the figure is 3.07; as for PDVENEPKRLLRSDAEAVSTRWEV [V7P], 4.57.

For the variant PDVENESKRLLRSDAEAVSTRWEV [V7S], the protein stability index was 3.56. The same measure, in the same setting: with PDVENENKRLLRSDAEAVSTRWEV [V7N] the figure was 2.94. The same measure, in the same setting: as for PDVENEYKRLLRSDAEAVSTRWEV [V7Y], the figure is 3.31; as for PDVENEIKRLLRSDAEAVSTRWEV [V7I], 2.73; as for PDVENEWKRLLRSDAEAVSTRWEV [V7W], 3.13. Same read-out and setting: with PDVENEMKRLLRSDAEAVSTRWEV [V7M] the figure was 3.47; with PDSENEVKRLLRSDAEAVSTRWEV [V3S], 3.13. With PDHENEVKRLLRSDAEAVSTRWEV [V3H], the protein stability index is 3.86.

As for PDFENEVKRLLRSDAEAVSTRWEV [V3F], the protein stability index was 3.32. Still for that read-out and setting: with PDQENEVKRLLRSDAEAVSTRWEV [V3Q] the figure was 3.79; with PDEENEVKRLLRSDAEAVSTRWEV [V3E], 4.74. For PDGENEVKRLLRSDAEAVSTRWEV [V3G], the protein stability index was 3.05. On to PDPENEVKRLLRSDAEAVSTRWEV [V3P], for which the protein stability index was determined as 4.43. With PDMENEVKRLLRSDAEAVSTRWEV [V3M], the protein stability index was determined as 3.5. On the same count and under the same terms, with PDTENEVKRLLRSDAEAVSTRWEV [V3T] the figure was 3.99; with PDDENEVKRLLRSDAEAVSTRWEV [V3D], 4.13; with PDKENEVKRLLRSDAEAVSTRWEV [V3K], 4.4. The same measure, in the same setting: with PDNENEVKRLLRSDAEAVSTRWEV [V3N] the figure was 3.09; with PDCENEVKRLLRSDAEAVSTRWEV [V3C], 3.75; with PKVENEVKRLLRSDAEAVSTRWEV [D2K], 3.71. Same read-out and setting: with PYVENEVKRLLRSDAEAVSTRWEV [D2Y] the figure was 2.81. Regarding PPVENEVKRLLRSDAEAVSTRWEV [D2P], the protein stability index turned out to be 3.58.

As for PAVENEVKRLLRSDAEAVSTRWEV [D2A], the protein stability index came out at 3.91. The same measure, in the same setting: as for PHVENEVKRLLRSDAEAVSTRWEV [D2H], the figure is 2.69; as for PMVENEVKRLLRSDAEAVSTRWEV [D2M], 3.13. On the same count and under the same terms, with PIVENEVKRLLRSDAEAVSTRWEV [D2I] the figure was 1.94. Same read-out and setting: with PTVENEVKRLLRSDAEAVSTRWEV [D2T] the figure was 2.59. As for PCVENEVKRLLRSDAEAVSTRWEV [D2C], the protein stability index was found to be 2.9. Still for that read-out and setting: as for PVVENEVKRLLRSDAEAVSTRWEV [D2V], the figure is 3.2. On the same count and under the same terms, as for PFVENEVKRLLRSDAEAVSTRWEV [D2F], the figure is 3.15; as for PLVENEVKRLLRSDAEAVSTRWEV [D2L], 2.56; as for PQVENEVKRLLRSDAEAVSTRWEV [D2Q], 2.62. The same measure, in the same setting: with PDVEMEVKRLLRSDAEAVSTRWEV [N5M] the figure was 2.81. Take PDVEAEVKRLLRSDAEAVSTRWEV [N5A]: the protein stability index came out at 3.79. The same measure, in the same setting: as for PDVEKEVKRLLRSDAEAVSTRWEV [N5K], the figure is 3.21; as for PDVEQEVKRLLRSDAEAVSTRWEV [N5Q], 3.07. PDVEWEVKRLLRSDAEAVSTRWEV [N5W]: the protein stability index came out at 2.95. Still for that read-out and setting: as for PDVELEVKRLLRSDAEAVSTRWEV [N5L], the figure is 2.82; as for PDVEYEVKRLLRSDAEAVSTRWEV [N5Y], 3.1; as for PDVESEVKRLLRSDAEAVSTRWEV [N5S], 2.03. On the same count and under the same terms, with PDVEFEVKRLLRSDAEAVSTRWEV [N5F] the figure was 2.62. Same read-out and setting: with PDVEPEVKRLLRSDAEAVSTRWEV [N5P] the figure was 3.57. On to YDVENEVKRLLRSDAEAVSTRWEV [P1Y], for which the protein stability index came out at 3.

Turning to NDVENEVKRLLRSDAEAVSTRWEV [P1N], the protein stability index was 3.43. On the same count and under the same terms, as for KDVENEVKRLLRSDAEAVSTRWEV [P1K], the figure is 3.27.

With RDVENEVKRLLRSDAEAVSTRWEV [P1R], the protein stability index came out at 2.36. On to SDVENEVKRLLRSDAEAVSTRWEV [P1S], for which the protein stability index was determined as 4.05.

Turning to TDVENEVKRLLRSDAEAVSTRWEV [P1T], the protein stability index was found to be 3.29.

With IDVENEVKRLLRSDAEAVSTRWEV [P1I], the protein stability index is 2.79. Still for that read-out and setting: with ADVENEVKRLLRSDAEAVSTRWEV [P1A] the figure was 2.92; with EDVENEVKRLLRSDAEAVSTRWEV [P1E], 4.44; with LDVENEVKRLLRSDAEAVSTRWEV [P1L], 3.52. Same read-out and setting: as for HDVENEVKRLLRSDAEAVSTRWEV [P1H], the figure is 2.27; as for DDVENEVKRLLRSDAEAVSTRWEV [P1D], 2.96; as for PDVYNEVKRLLRSDAEAVSTRWEV [E4Y], 3.14. On the same count and under the same terms, with PDVTNEVKRLLRSDAEAVSTRWEV [E4T] the figure was 3.17; with PDVDNEVKRLLRSDAEAVSTRWEV [E4D], 2.19.

As for PDVANEVKRLLRSDAEAVSTRWEV [E4A], the protein stability index was determined as 4.39. The same measure, in the same setting: with PDVWNEVKRLLRSDAEAVSTRWEV [E4W] the figure was 1.93; with PDVQNEVKRLLRSDAEAVSTRWEV [E4Q], 3.21. On the same count and under the same terms, with PDVNNEVKRLLRSDAEAVSTRWEV [E4N] the figure was 3.05; with PDVVNEVKRLLRSDAEAVSTRWEV [E4V], 2.76. Still for that read-out and setting: with PDVPNEVKRLLRSDAEAVSTRWEV [E4P] the figure was 3.86. With PDVFNEVKRLLRSDAEAVSTRWEV [E4F], the protein stability index amounted to 1.

As to PDVGNEVKRLLRSDAEAVSTRWEV [E4G], the protein stability index turned out to be 2.92. The same measure, in the same setting: as for PDVMNEVKRLLRSDAEAVSTRWEV [E4M], the figure is 1.69.

With PDVCNEVKRLLRSDAEAVSTRWEV [E4C], the protein stability index is 2.38. Still for that read-out and setting: as for PDVKNEVKRLLRSDAEAVSTRWEV [E4K], the figure is 3.35; as for PDVENNVKRLLRSDAEAVSTRWEV [E6N], 3.12. The same measure, in the same setting: as for PDVENGVKRLLRSDAEAVSTRWEV [E6G], the figure is 3.25; as for PDVENKVKRLLRSDAEAVSTRWEV [E6K], 3.17; as for PDVENHVKRLLRSDAEAVSTRWEV [E6H], 2.9. Same read-out and setting: with PDVENPVKRLLRSDAEAVSTRWEV [E6P] the figure was 4.02; with PDVENMVKRLLRSDAEAVSTRWEV [E6M], 2.05. As to PDVENCVKRLLRSDAEAVSTRWEV [E6C], the protein stability index is 2.9. The same measure, in the same setting: with PDVENSVKRLLRSDAEAVSTRWEV [E6S] the figure was 3.21; with PDVENRVKRLLRSDAEAVSTRWEV [E6R], 3.65. The same measure, in the same setting: with PDVENEVERLLRSDAEAVSTRWEV [K8E] the figure was 3.6; with PDVENEVCRLLRSDAEAVSTRWEV [K8C], 3.23; with PDVENEVHRLLRSDAEAVSTRWEV [K8H], 4.25. On the same count and under the same terms, with PDVENEVFRLLRSDAEAVSTRWEV [K8F] the figure was 2.2.

The variants in the next data set derive from B2. The data set is described as above. To be noted: c terminus: native.
As to RGRHEQSPTSRPRKVSSLPPRSY [C23Y], the protein stability index was 3.2. For the variant RGRHEQSPTSRPRKVSSLPPRSQ [C23Q], the protein stability index amounted to 2.29. Same read-out and setting: with RGRHEQSPTSRPRKVSSLPPRSV [C23V] the figure was 3.28. Same read-out and setting: as for RGRHEQSPTSRPRKVSSLPPRSW [C23W], the figure is 2.64; as for RGRHEQSPTSRPRKVSSLPPRSN [C23N], 5.09; as for RGRHEQSPTSRPRKVSSLPPRST [C23T], 2.97.
